Entries after “also recorded” stand apart in the source; their conditions may differ.
Key:
[1] = tested on: AML primary human samples; test: Primary AML bone marrow samples treated in vitro for 7 days (Lin- cells, LSC, CD99- HSPC); assay type: cell-based; conditions: for cell death of AML cells (blasts, LSCs), comparison between treatments: 7-day treatment of AML primary human samples
Text: Primary and secondary AML samples were obtained from patients enrolled in the clinical trial AMLCG-2008 (http://clinicaltrial.gov identifier NCT01382147), the AML register protocol of the AML Register and Biomaterial Database of the German Leukemia Study Alliance, the AML register protocol of the German AML Cooperative Group Version 2.0 from Jan. 6, 2011, the AML register protocol of the German AML study group, or treated at the III. Medical Department at the Technical University of Munich after approval of the local ethics committee (approval no. 62/16 S from Feb. 10, 2016 to 2790/10 from Apr. 30, 2010). Informed consent was obtained from patients at study entry.
To examine how targeting TNF/ LT-α signaling can be most effectively used to treat AML, the inventors treated AML primary human samples in vitro. LT-α and a-TNF (Adalimumab) were evaluated, alone or in combination. Moreover, LT-α was tested in combination with the standard AML chemotherapeutic Cytarabine (CYT), the clinical SMAC mimetic Birinapant, and the clinical pan-caspase inhibitor Emricasan. Drug concentrations were determined after titration in healthy bone marrow samples and AML cell lines (data not shown). After 7-day-treatment, cell viability was evaluated, using CD99 to discriminate between non-leukaemogenic HSPCs (CD99^−) and LSCs (FIG. 4c).

AML cell lines = test: Relative number of cells in AML cell lines after treatment (flow cytometry); assay type: cell-based, human; conditions: panel of nine AML cell lines; 7 days; vs untreated cells
Experimental: All centrifugation steps were performed at 400×g.

FLT3-ITD-transduced BM = test: Colony forming cell assay (CFU-GEMM) of FLT3-ITD-transduced bone marrow; assay type: cell-based, mouse; conditions: WT FLT3-ITD transduced cultures; rm LT-α 100 ng/ml, rm TNF 100 ng/ml, Etanercept 50 ng/ml; counted after 10 days; vs control
Experimental: For colony forming cell assays, all duplicate cultures were performed in 35 mm petri dishes in murine methylcellulose medium (Methocult, Stem Cell Technologies). BM cells of unchallenged or 5-FUchallenged mice were plated in M3434. […] For analysis of colony forming units (CFU) cell viability, colonies were grown for 10 days in the presence of propidium iodide (PI) (0.8 μg/ml; Sigma) and representative CFU-GEMM were imaged using a Keyence BZ-9000 (Biorevo) fluorescence microscope.

[2] = tested on: WT FLT3-ITD mice (FLT3-ITD-driven myeloproliferative disorder)
Experimental: For treatment, two- and eight-weeks post transplantation animals were randomly divided into groups of eight. Mice were i.v. injected twice per week with either isotype control (5 mg/kg; RTK2071; Biolegend), Etanercept (Enbrel®, 50 ng/ml; Pfizer), rm LT-α (250 μg/kg; Cusabio), a-TNF (5 mg/kg; MP6-XT22; Biolegend), or rm LT-α plus a-TNF.
Mice with disease were sacrificed. Peripheral blood white blood cell counts (WBC) were measured by scil Vet abc (scil animal care company). Single-cell suspensions of indicated tissue samples were prepared and red blood cells of peripheral blood were lysed before analysis. Cells were pre-incubated with Fc-block and subsequently stained with fluorescently labeled antibodies. Dead cells were excluded by PI (Sigma) or Zombie Aqua™ Fixable Viability Kit (Biolegend) staining according to the manufacturer's instructions.

healthy BM [3] = tested on: healthy BM
Experimental: (§1) Human primary samples: Bone marrow mononuclear cells (BMMC) were isolated from heparinized bone marrow samples or bone chips by centrifugation over a Ficoll-Hypaque layer (Biochrom) of 1.077 g/ml density. Cells were harvested and used directly for immunephenotyping or cultured in IMDM (Gibco) supplemented with 20% fetal calf serum (FCS; PAN-Biotech), penicillin/streptomycin 0.05 mM, L-glutamine 2 mM, and 2-mercaptoethanol 0.05 mM (Gibco) on EL08-1D2 stromal cells.
(§2) For flow cytometry analysis after treatment, BM cells or AML cell lines were cultured as described above for 7 days in the presence of the following cytokines and inhibitors if indicated and not stated otherwise: Etanercept (Enbrel®; 50 ng/ml; Pfizer), recombinant human (rh) LT-α (100 ng/ml; R&D), rh TNF (100 ng/ml; R&D), Emricasan (2.5 nM; SelleckChem), Birinapant (10 nM; SelleckChem), Cytarabine (100 nM), a-LTα-Ig (10 μg/ml; 359-238-8; Biolegend), Adalimumab (Humira®; 500 ng/ml; Abbvie), and respective isotype controls Mouse IgG1, κ (MOPC-21; Biolegend), and Ultra-LEAF™ purified Human IgG1 (QA16A12; Biolegend).
(§3) Non-leukemia control samples were collected from individuals who underwent bone marrow aspiration for diagnostic purposes and in whom subsequently a hematological disease was ruled out. Healthy controls were isolated from the femoral heads of patients who underwent surgical hip replacement.
(§4) Antibodies used to separate human hematopoietic cell subsets, for immunephenotyping and intracellular protein expression analysis: Fluorescently labelled antibodies against Lineage Cocktail (Cat #348801; 348703), CD45RA (HI100), CD34 (581), CD38 (HB-7), CD99 (3B2/TA8), CD123 (5B11) were obtained from Biolegend. Flow analysis was performed on a BD FACS Canto II (BD Biosciences) and data were analyzed using FlowJo software (Tree Star).

K562 = test: Relative number of K562 CML cells after treatment; conditions: alone or with imatinib 1 or 10 μM; vs untreated cells
Experimental: As a model for CML, LT-α was tested for potential effects on the cell line K562, either separately against the standard therapy imatinib (in concentrations of 1 or 10 μM) alone, or in combination (FIG. 5).

healthy BM [4] = test: Hematopoietic cell subsets in healthy bone marrow treated with LT-α; conditions: 100 ng/ml LT-α
Experimental: as §1, §2, §3, §4

[5] = WT FLT3-ITD mice, treated twice per week
[6] = compared to controls, data not shown

Molecule: CC[C@H](NC(=O)[C@H](C)NC)C(=O)N1C[C@@H](O)C[C@H]1Cc1c(-c2[nH]c3cc(F)ccc3c2C[C@@H]2C[C@H](O)CN2C(=O)[C@H](CC)NC(=O)[C@H](C)NC)[nH]c2cc(F)ccc12 [Birinapant, reference compound]
- cell death of AML cells (blasts, LSCs), comparison between treatments [1]: better at promoting cell death, both of blasts and LSCs, than Cytarabine

Molecule: adalimumab
- number of AML cells (AML cell lines): drastic reduction

Molecule: C[C@H](NC(=O)C(=O)Nc1ccccc1C(C)(C)C)C(=O)N[C@@H](CC(=O)O)C(=O)COc1c(F)c(F)cc(F)c1F [Emricasan, reference compound]
- cell death of AML cells (blasts, LSCs), comparison between treatments [1]: resistant to LT-α- and Birinapant-induced cell death

Molecule: Etanercept
- number of GEMM colonies (FLT3-ITD-transduced BM): increase
- number of AML cells (AML cell lines): not observed
- remission / disease outcome [2, 5]: rapidly succumbed to disease
- Median survival ([2]; WT mice transplanted with FLT3-ITD-transduced WT BM, treated i.v. twice per week): 65 days
- WBC counts [2, 6]: considerably elevated
- hepato-splenomegaly [2, 6]: increased
- latency [2, 6]: reduced
- leukemic burden [2, 6]: elevated
- number of primitive leukemic cells [2, 6]: drastically increased

B1: LT-α: Lymphotoxin alpha polypeptide (SEQ ID No. 1/2); recombinant mouse LT-α used in mouse tests, recombinant human LT-α in human cell tests (protein, UniProt P01374 35-205, looked up)
Lymphotoxin-alpha: LPGVGLTPSAAQTARQHPKMHLAHSTLKPAAHLIGDPSKQNSLLWRANTDRAFLQDGFSLSNNSLLVPTSGIYFVYSQVVFSGKAYSPKATSSPLYLAHEVQLFSSQYPFHVPLLSSQKMVYPGLQEPWLHSMYHGAAFQLTQGDQLSTHTDGIPHLVLSPSTVFFGAFAL
modifications: mouse LT-α also used
- number of GEMM colonies (FLT3-ITD-transduced BM): significantly reduced
- number of AML cells (AML cell lines): significantly decreased
- cell death of AML cells (blasts, LSCs), comparison between treatments [1]: more effectively than the standard AML chemotherapeutic Cytarabine; also recorded: more efficient manner than a-TNF
- non-leukaemogenic HSPCs (CD99-) ([1]; 7-day treatment, a-TNF = Adalimumab): promoted expansion
- Lin- cells (bulk of AML blasts and healthy HSPCs) ([1]; 7-day treatment, rh LT-α 100 ng/ml): killed
- LSCs in AML BM samples ([1]; 7-day treatment, rh LT-α 100 ng/ml, a-TNF = Adalimumab 500 ng/ml): killed
- tolerability in vivo ([2]; WT FLT3-ITD mice, i.v. twice per week): well tolerated
- remission / disease outcome [2, 5]: induced durable remissions
- LSCs in FLT3-ITD-transplanted mice ([2]; treated twice per week): eradicates LSCs
- toxicity to healthy controls / healthy cells (healthy BM [3]): lacks any pronounced cytotoxicity
- effect on K562 cells (relative number of cells) (K562): significant effects; also recorded: kills blast cells
- toxic effect on healthy bone marrow (healthy BM [4]; bone marrow samples from healthy control patients): not elicit any detectable toxic effect
- healthy haematopoiesis (HSCs and myeloid progenitor subsets) (healthy BM [4]; healthy BM): sustained
